Results published in patent publication US20090093061.

Test system: GroEL having Aspartate 490 substituted with Cysteine, biotinylated and conjugated onto NeutrAvidin beads

**Q.** With mitochondrial malate dehydrogenase as the substance, how does the “refolding of denatured mMDH (conversion of NADH to NAD+ in the presence of oxaloacetate, OD at 340 nm)” value read?
**A.** positive GroEL-490 activity was confirmed by a reduction in OD at 340 nm with respect to the control
